T1: Human CD100 (human, UniProt Q92854 22-734, limits assumed)
T1 construct: also called SEMA4D; Hu CD100
T1 sequence (looked up): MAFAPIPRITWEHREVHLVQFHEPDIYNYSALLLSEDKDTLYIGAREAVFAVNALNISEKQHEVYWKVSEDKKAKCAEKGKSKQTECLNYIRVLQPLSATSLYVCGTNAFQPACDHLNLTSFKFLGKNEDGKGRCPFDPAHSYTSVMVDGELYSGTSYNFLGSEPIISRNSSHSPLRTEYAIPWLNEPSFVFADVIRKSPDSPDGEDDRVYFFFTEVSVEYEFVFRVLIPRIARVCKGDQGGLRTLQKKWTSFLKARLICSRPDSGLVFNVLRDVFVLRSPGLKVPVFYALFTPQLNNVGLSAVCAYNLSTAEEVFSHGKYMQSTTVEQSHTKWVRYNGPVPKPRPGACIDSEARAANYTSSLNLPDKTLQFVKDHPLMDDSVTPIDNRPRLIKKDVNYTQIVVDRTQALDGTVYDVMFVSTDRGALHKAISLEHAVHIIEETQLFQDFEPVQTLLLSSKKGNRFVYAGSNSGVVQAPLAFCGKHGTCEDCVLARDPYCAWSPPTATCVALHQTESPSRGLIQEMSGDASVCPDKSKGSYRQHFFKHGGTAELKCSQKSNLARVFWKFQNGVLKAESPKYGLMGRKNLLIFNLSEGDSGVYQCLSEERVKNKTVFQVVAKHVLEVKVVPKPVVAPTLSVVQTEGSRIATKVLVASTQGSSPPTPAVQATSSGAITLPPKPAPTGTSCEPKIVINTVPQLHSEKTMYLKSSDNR

T2: human CD100-Fc (human, UniProt Q92854 22-734, limits assumed)
T2 construct: also called CD100-Fc antigen
T2 sequence (looked up): T1 sequence (looked up)

B1: MAb 2139 (antibody, V domains shown)
VH: QVQLVQSGAEVKKPGSSVKVSCTASGYTFTDYYMDWVRQAPGQGLEWMGRVNPYHGGATYNQKFKGRVTITADKSTSTAYMELSSLRSEDTAVYYCAREENSYDGYYGMDYWGQGTLVTVSS
VL: DIVMTQSPLSLPVSPGEPATINCKSSQSLFNSGNQKNYLAWYLQKPGQPPKLLIYGASTRESGVPDRFSGSGSGTDFTLTISSLQAEDVAVYYCQNDHTYPYTFGQGTKLEIK
notes: H1651 mutant VH combined with L284; also called H1651 K23T with L284
B2: MAb 2144 (antibody, V domains shown)
VH: B1 VH with Q6A, T23K
VL: B1 VL
notes: H1651 mutant VH combined with L284; also called H1651 Q6A with L284
B3: MAb 2163 (antibody, V domains shown)
VH: B1 VH with T23K, D31K
VL: B1 VL
notes: H1651 mutant VH combined with L284; also called H1651 D31K with L284
B4: MAb 2208 (antibody, V domains shown)
VH: B1 VH with T23K, A58G
VL: B1 VL
notes: H1651 mutant VH combined with L284; also called H1651 A58G with L284
B5: MAb 2216 (antibody, V domains shown)
VH: B1 VH with T23K, T59F
VL: B1 VL
notes: H1651 mutant VH combined with L284; also called H1651 T59F with L284
B6: MAb 2220 (antibody, V domains shown)
VH: B1 VH with T23K, Y60F
VL: B1 VL
notes: H1651 mutant VH combined with L284; also called H1651 Y60F with L284
B7: MAb 2202 (antibody, V domains shown)
VH: B1 VH with T23K, G57F
VL: B1 VL
notes: H1651 mutant VH combined with L284; also called H1651 G57F with L284
B8: MAb 2117 (antibody, V domains shown)
VH: B1 VH with T23K, D104T
VL: B1 VL
notes: H1651 mutant VH combined with L284; also called H1651 D104T with L284
B9: MAb 2125 (antibody, V domains shown)
VH: B1 VH with T23K, E100D
VL: B1 VL
notes: H1651 mutant VH combined with L284; also called H1651 E100D with L284
B10: MAb 2275 (antibody, V domains shown)
VH: B1 VH with Q6A, T23K, G57F
VL: B1 VL
notes: Double mutant of H1651 with L284; also called H1651 Q6A G57F with L284
B11: MAb 2283 (antibody, V domains shown)
VH: B1 VH with T59F
VL: B1 VL
notes: Double mutant of H1651 with L284; also called H1651 K23T T59F with L284
B12: MAb 2281 (antibody, V domains shown)
VH: B1 VH with G57F
VL: B1 VL
notes: Double mutant of H1651 with L284; also called H1651 K23T G57F with L284
B13: MAb 2276 (antibody, V domains shown)
VH: B1 VH with Q6A, T23K, G57Y
VL: B1 VL
notes: Double mutant of H1651 with L284; also called H1651 Q6A G57Y with L284
B14: MAb 2284 (antibody, V domains shown)
VH: B1 VH with Y60F
VL: B1 VL
notes: Double mutant of H1651 with L284; also called H1651 K23T Y60F with L284
B15: MAb 2280 (antibody, V domains shown)
VH: B1 VH with D31K
VL: B1 VL
notes: Double mutant of H1651 with L284; also called H1651 K23T D31K with L284
B16: MAb 2277 (antibody, V domains shown)
VH: B1 VH with Q6A, T23K, T59F
VL: B1 VL
notes: Double mutant of H1651 with L284; also called H1651 Q6A T59F with L284
B17: MAb 2285 (antibody, V domains shown)
VH: B1 VH with Y60V
VL: B1 VL
notes: Double mutant of H1651 with L284; also called H1651 K23T Y60V with L284
B18: MAb 2279 (antibody, V domains shown)
VH: B1 VH with Q6A, T23K, Y60V
VL: B1 VL
notes: Double mutant of H1651 with L284; also called H1651 Q6A Y60V with L284
B19: MAb 2278 (antibody, V domains shown)
VH: B1 VH with Q6A, T23K, Y60F
VL: B1 VL
notes: Double mutant of H1651 with L284; also called H1651 Q6A Y60F with L284
B20: MAb 2282 (antibody, V domains shown)
VH: B1 VH with G57Y
VL: B1 VL
notes: Double mutant of H1651 with L284; also called H1651 K23T G57Y with L284
B21: MAb 2274 (antibody, V domains shown)
VH: B1 VH with Q6A, T23K, D31K
VL: B1 VL
notes: Double mutant of H1651 with L284; also called H1651 Q6A D31K with L284
B22: MAb 2224 (antibody, V domains shown)
VH: B1 VH with T23K, Y60P
VL: B1 VL
notes: H1651 mutant VH combined with L284; also called H1651 Y60P with L284
B23: MAb 2225 (antibody, V domains shown)
VH: B1 VH with T23K, Y60V
VL: B1 VL
notes: H1651 mutant VH combined with L284; also called H1651 Y60V with L284
B24: MAb 2206 (antibody, V domains shown)
VH: B1 VH with T23K, G57W
VL: B1 VL
notes: H1651 mutant VH combined with L284; also called H1651 G57W with L284
B25: MAb 2219 (antibody, V domains shown)
VH: B1 VH with T23K, T59W
VL: B1 VL
notes: H1651 mutant VH combined with L284; also called H1651 T59W with L284
B26: MAb 2218 (antibody, V domains shown)
VH: B1 VH with T23K, T59V
VL: B1 VL
notes: H1651 mutant VH combined with L284; also called H1651 T59V with L284
B27: MAb 2207 (antibody, V domains shown)
VH: B1 VH with T23K, G57Y
VL: B1 VL
notes: H1651 mutant VH combined with L284; also called H1651 G57Y with L284
B28: MAb 301 (antibody, human IgG1, V domains shown)
VH: EVQLQQSGPELVKPGASVKMSCKASGYTFTDYYMDWVKQSHGESFEWIGRVNPYHGGATYNQKFKGKATLTVDKSSRTAYMELNSLTYEDSAVYYCAREENSYDGYYGMDYWGQGTTVTVSS
VL: DIVLTQSPSSLSVSAGEKVTMDCKSSQSLFNSGNQKNYLAWYHQKPGQPPKLLIYGASTRESGVPDRFTGSGSGTDFTLTISSVQAEDLAVYYCQNDHTYPYTFGGGTKLEIK
notes: Chimeric, human IgG1, human kappa constant domain; also called chimeric BD16; H387/L124
B29: MAb 1656 (antibody, human IgG1, V domains shown)
VH: B1 VH with T23K
VL: B1 VL
notes: Humanized BD16, fully human frameworks, human IgG1; also called H1651/L284
B30: MAb 1807 (antibody, human IgG4, V domains shown)
VH: B1 VH with T23K, M48I, R67K, V68A, A72V
VL: B1 VL
notes: Humanized BD16, human IgG4; also called H1235/L284

Numbering of substitutions follows the chain as printed. Numbers in names are those of the source.

By Kd is commonly meant the constant that tells how readily two partners part at equilibrium. A word on the EC50 (read off the curve): it is the concentration giving half of the maximal effect. A high value points to a less potent agent.

T6 sequence (P22629 37-163 limits assumed): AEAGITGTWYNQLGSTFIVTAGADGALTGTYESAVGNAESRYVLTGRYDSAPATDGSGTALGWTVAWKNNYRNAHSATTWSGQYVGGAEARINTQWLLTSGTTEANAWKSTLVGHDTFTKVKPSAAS
T4 sequence (P02768 25-609 limits assumed): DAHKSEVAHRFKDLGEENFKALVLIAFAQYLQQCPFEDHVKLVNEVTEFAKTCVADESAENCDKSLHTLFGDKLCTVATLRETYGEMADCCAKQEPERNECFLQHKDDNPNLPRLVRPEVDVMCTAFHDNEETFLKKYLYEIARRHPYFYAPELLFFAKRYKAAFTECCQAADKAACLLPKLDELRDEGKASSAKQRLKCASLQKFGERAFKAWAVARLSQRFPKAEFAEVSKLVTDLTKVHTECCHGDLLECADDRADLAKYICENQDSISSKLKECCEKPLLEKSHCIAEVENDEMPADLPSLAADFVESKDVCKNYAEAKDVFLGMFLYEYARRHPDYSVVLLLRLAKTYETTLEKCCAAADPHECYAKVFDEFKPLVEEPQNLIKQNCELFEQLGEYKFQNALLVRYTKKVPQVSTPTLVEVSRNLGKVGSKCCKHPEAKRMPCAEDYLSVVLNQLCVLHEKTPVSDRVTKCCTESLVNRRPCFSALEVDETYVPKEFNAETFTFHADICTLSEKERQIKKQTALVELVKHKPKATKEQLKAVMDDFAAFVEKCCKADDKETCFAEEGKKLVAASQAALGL

One assay deals with T1, Human CD100. Put plainly: affinity testing, method and unit not printed in Example 10 (nM as in Table 3); mutant value, before the parentheses.
In the case of B1, the Kd worked out at 0.61 nM.
Turning to B2, the equilibrium dissociation constant (Kd) was determined as 0.43 nM.
For B3, the Kd turned out to be 0.06 nM.
On the same count and under the same terms, next, B4: 0.08 nM.
Same read-out and setting: next, B5: 0.06 nM; B6: 0.04 nM; B7: 0.06 nM.
For the molecule B8, the Kd was found to be 0.52 nM.
For the molecule B9, the Kd is 0.66 nM.

The next assay deals with T1, Human CD100. Put plainly: affinity testing, method and unit not printed in Example 10 (nM as in Table 3).
Molecule B10 had a Kd of 0.09 nM.
B11 came in with a Kd of 0.13 nM.
With B12, binding was characterised by a dissociation constant (Kd) of 0.09 nM.
Molecule B13 showed a Kd of 0.09 nM.
In turn, B14 yielded a Kd of 0.24 nM.
On the same count and under the same terms, next, B15: 0.13 nM.
The molecule B16 displayed a Kd of 0.09 nM.
B17 came in with a Kd of 0.1 nM.
In turn, B18 returned a Kd of 0.14 nM.
B19 displayed a Kd of 0.11 nM.
Take B20: the Kd is 0.09 nM.
Turning to B21, binding was characterised by a dissociation constant (Kd) of 0.1 nM.

Another assay concerns the target T1, Human CD100. The assay is described as above. The source holds these as a separate data set.
B22 had a Kd of 0.07 nM.
B23 had a Kd of 0.04 nM.
Molecule B24 showed a Kd of 0.09 nM.
On the same count and under the same terms, next, B25: 0.08 nM.
B26 came in with a Kd of 0.08 nM.
On the same count and under the same terms, the figure for B27 is 0.06 nM.

For another assay, the target named is T3, huErb2-Fc (human, UniProt P04626 23-652).
T3 construct: Negative control antigen; also called huErb2-Fc antigen
Put plainly: ELISA on huErb2-Fc antigen (Neg Ctrl).
Regarding B28, the binding result is “no binding (tested: 500 ng/ml)”.

A further assay concerns the target T2, human CD100-Fc. Put plainly: ELISA on CD100-Fc antigen. Background: ELISA stands for enzyme-linked immunosorbent assay.
Consider B28, for which the “EC50 (read off the curve)” value was ~0.02 µg/mL.

Another assay deals with T1, Human CD100. Put plainly: ELISA method of Friguet et al.; column head 'Affinity (nM) IC50 ELISA'; antigen not named. On the procedure:
Antibody affinity was measured according to the ELISA method described in Friguet et al. (1985) J Immunol Methods 77(2):305-19.
In turn, B29 had a Kd of 0.12 nM.
Molecule B30 had a Kd of 0.12 nM.

The target of another assay is T3, huErb2-Fc. Put plainly: ELISA.
As for B29, the binding result is “no binding”.
Still for that read-out and setting: the entry for B30 is “no binding”.

Another assay concerns the target T4, human serum albumin (human, UniProt P02768 25-609).
T4 construct: Negative control antigen
Put plainly: ELISA.
Turning to B29, the binding result is listed as “no binding”.
In the case of B30, the binding result was “no binding”.
Same read-out and setting: the entry for B28 is “no binding”.

In another assay the target is T5, BSA (UniProt P02769 25-607).
T5 construct: Negative control antigen
T5 sequence (P02769 25-607 limits assumed): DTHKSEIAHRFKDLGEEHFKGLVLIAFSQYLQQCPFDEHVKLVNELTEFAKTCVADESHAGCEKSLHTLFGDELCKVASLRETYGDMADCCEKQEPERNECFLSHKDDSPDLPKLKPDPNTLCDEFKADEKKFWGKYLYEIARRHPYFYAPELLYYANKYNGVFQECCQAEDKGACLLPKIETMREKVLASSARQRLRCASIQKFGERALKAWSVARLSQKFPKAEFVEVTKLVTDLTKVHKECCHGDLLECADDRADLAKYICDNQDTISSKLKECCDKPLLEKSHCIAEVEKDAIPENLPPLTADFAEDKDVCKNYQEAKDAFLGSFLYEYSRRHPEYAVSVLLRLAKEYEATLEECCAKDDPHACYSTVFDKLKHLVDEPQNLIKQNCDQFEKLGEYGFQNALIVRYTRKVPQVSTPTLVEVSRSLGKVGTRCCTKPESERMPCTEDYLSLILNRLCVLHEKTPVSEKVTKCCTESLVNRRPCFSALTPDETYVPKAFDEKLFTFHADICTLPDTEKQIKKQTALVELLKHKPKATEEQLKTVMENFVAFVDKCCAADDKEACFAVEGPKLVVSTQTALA
Put plainly: ELISA.
For B29, the binding result was “no binding”.
For B30, the binding result is reported as “no binding”.
For B28, the binding result is listed as “no binding”.

A further assay has as its target T6, streptavidin (UniProt P22629 37-163, limits assumed).
T6 construct: Negative control antigen
Put plainly: ELISA.
For B29, the binding result was “no binding”.
On the same count and under the same terms, the entry for B30 is “no binding”; for B28 it is “no binding”.

Values taken from US20080219971A1 (VACCINEX, published 2008).
